Reference: patent US20060263802A1 (CRUCELL HOLLAND B V, published 2006)

Key:
Experiment in all cases: PEPSCAN ELISA, looped 15-mer, 10 ug/ml
[1] = biological target: looped peptide … (rabies virus strain ERA)
[2] = biological target: looped peptide … (rabies virus strain ERA); remark: listed apart in the source
[3] = biological target: looped peptide … (rabies virus strain ERA); remark: listed apart in the source
[4] = biological target: looped peptide … (rabies virus strain ERA); remark: listed apart in the source
[5] = biological target: looped peptide … (rabies virus strain ERA); remark: listed apart in the source
[6] = biological target: looped peptide … (rabies virus strain ERA); remark: listed apart in the source
[7] = biological target: looped peptide … (rabies virus strain ERA); remark: listed apart in the source
[8] = biological target: looped peptide … (rabies virus strain ERA); remark: listed apart in the source
[9] = biological target: looped peptide … (rabies virus strain ERA); remark: listed apart in the source
[10] = biological target: looped peptide … (rabies virus strain ERA); remark: listed apart in the source
[11] = biological target: looped peptide … (rabies virus strain ERA); remark: listed apart in the source
[12] = biological target: looped peptide … (rabies virus strain ERA); remark: listed apart in the source
[13] = biological target: looped peptide … (rabies virus strain ERA); remark: listed apart in the source
[14] = biological target: looped peptide … (rabies virus strain ERA); remark: listed apart in the source
[15] = biological target: looped peptide … (rabies virus strain ERA); remark: listed apart in the source
[16] = biological target: looped peptide … (rabies virus strain ERA); remark: listed apart in the source
[17] = biological target: looped peptide … (rabies virus strain ERA); remark: listed apart in the source
[18] = biological target: looped peptide … (rabies virus strain ERA); remark: listed apart in the source
[19] = biological target: looped peptide … (rabies virus strain ERA); remark: listed apart in the source
[20] = biological target: looped peptide … (rabies virus strain ERA); remark: listed apart in the source
[21] = biological target: looped peptide … (rabies virus strain ERA); remark: listed apart in the source
[22] = biological target: looped peptide … (rabies virus strain ERA); remark: listed apart in the source
[23] = biological target: looped peptide … (rabies virus strain ERA); remark: listed apart in the source
[24] = biological target: looped peptide … (rabies virus strain ERA); remark: listed apart in the source
[25] = biological target: looped peptide … (rabies virus strain ERA); remark: listed apart in the source
[26] = biological target: looped peptide … (rabies virus strain ERA); remark: listed apart in the source
[27] = biological target: looped peptide … (rabies virus strain ERA); remark: listed apart in the source
[28] = biological target: looped peptide … (rabies virus strain ERA); remark: listed apart in the source
[29] = biological target: looped peptide … (rabies virus strain ERA); remark: listed apart in the source
[30] = biological target: looped peptide … (rabies virus strain ERA); remark: listed apart in the source
[31] = biological target: looped peptide … (rabies virus strain ERA); remark: listed apart in the source
[32] = biological target: looped peptide … (rabies virus strain ERA); remark: listed apart in the source
[33] = biological target: looped peptide … (rabies virus strain ERA); remark: listed apart in the source
[34] = biological target: looped peptide … (rabies virus strain ERA); remark: listed apart in the source
[35] = biological target: looped peptide … (rabies virus strain ERA); remark: listed apart in the source
[36] = biological target: looped peptide … (rabies virus strain ERA); remark: listed apart in the source
[37] = biological target: looped peptide … (rabies virus strain ERA); remark: listed apart in the source
[38] = biological target: looped peptide … (rabies virus strain ERA); remark: listed apart in the source
[39] = biological target: looped peptide … (rabies virus strain ERA); remark: listed apart in the source
[40] = biological target: looped peptide … (rabies virus strain ERA); remark: listed apart in the source
[41] = biological target: looped peptide … (rabies virus strain ERA); remark: listed apart in the source
[42] = biological target: looped peptide … (rabies virus strain ERA); remark: listed apart in the source
[43] = biological target: looped peptide … (rabies virus strain ERA); remark: listed apart in the source
[44] = biological target: looped peptide … (rabies virus strain ERA); remark: listed apart in the source
[45] = biological target: looped peptide … (rabies virus strain ERA); remark: listed apart in the source
[46] = biological target: looped peptide … (rabies virus strain ERA); remark: listed apart in the source
[47] = biological target: looped peptide … (rabies virus strain ERA); remark: listed apart in the source
[48] = biological target: looped peptide … (rabies virus strain ERA); remark: listed apart in the source
[49] = biological target: looped peptide … (rabies virus strain ERA); remark: listed apart in the source
[50] = biological target: looped peptide … (rabies virus strain ERA); remark: listed apart in the source
[51] = biological target: looped peptide … (rabies virus strain ERA); remark: listed apart in the source
[52] = biological target: looped peptide … (rabies virus strain ERA); remark: listed apart in the source
[53] = biological target: looped peptide … (rabies virus strain ERA); remark: listed apart in the source
[54] = biological target: looped peptide … (rabies virus strain ERA); remark: listed apart in the source
[55] = biological target: looped peptide … (rabies virus strain ERA); remark: listed apart in the source
[56] = biological target: looped peptide … (rabies virus strain ERA); remark: listed apart in the source
[57] = biological target: looped peptide … (rabies virus strain ERA); remark: listed apart in the source
[58] = biological target: looped peptide … (rabies virus strain ERA); remark: listed apart in the source
[59] = biological target: looped peptide … (rabies virus strain ERA); remark: listed apart in the source
[60] = biological target: looped peptide … (rabies virus strain ERA); remark: listed apart in the source
[61] = biological target: looped peptide … (rabies virus strain ERA); remark: listed apart in the source
[62] = biological target: looped peptide … (rabies virus strain ERA); remark: listed apart in the source
[63] = biological target: looped peptide … (rabies virus strain ERA); remark: listed apart in the source
[64] = biological target: looped peptide … (rabies virus strain ERA); remark: listed apart in the source
[65] = biological target: looped peptide … (rabies virus strain ERA); remark: listed apart in the source
[66] = biological target: looped peptide … (rabies virus strain ERA); remark: listed apart in the source
[67] = biological target: looped peptide … (rabies virus strain ERA); remark: listed apart in the source

B1: human monoclonal antibody CRJB (antibody, V domains shown)
VH: QITLKETGPTLVKPTQTLTLTCTFSGFSLSTSGVGVGWIRQPPGKALEWVTLIYWDDDKRYSPSLENRVTIRKDTSKNQVALTMTNMDPLDTGTYYCAHRQHISSFPWFDSWGQGTLVTVSS
VL: SYVLTQPPSVSVAPGKTARINCGGNNIEYRSVHWYQQKSGQAPVAVIYDNSDRPSGIPERFSGSKSGNTATLTISRVEAGDEADYYCQVWDISSDVVFGGGTKLTVLG
OD value [1]: 106 | OD value [2]: 90 | OD value [3]: 86 | OD value [4]: 5 | OD value [5]: 83 | OD value [6]: 62 | OD value [7]: 79 | OD value [8]: 82 | OD value [9]: 89 | OD value [10]: 66 | OD value [11]: 42 | OD value [12]: 84 | OD value [13]: 71 | OD value [14]: 83 | OD value [15]: 58 | OD value [16]: 75 | OD value [17]: 64 | OD value [18]: 106 | OD value [19]: 71 | OD value [20]: 92 | OD value [21]: 91 | OD value [22]: 73 | OD value [23]: 72 | OD value [24]: 57 | OD value [25]: 108 | OD value [26]: 89 | OD value [27]: 82 | OD value [28]: 105 | OD value [29]: 68 | OD value [30]: 44 | OD value [31]: 101 | OD value [32]: 123 | OD value [33]: 77 | OD value [34]: 79 | OD value [35]: 87 | OD value [36]: 62 | OD value [37]: 83 | OD value [38]: 85 | OD value [39]: 106 | OD value [40]: 82 | OD value [41]: 105 | OD value [42]: 58 | OD value [43]: 82 | OD value [44]: 2 | OD value [45]: 111 | OD value [46]: 88 | OD value [47]: 66 | OD value [48]: 57 | OD value [49]: 89 | OD value [50]: 79 | OD value [51]: 58 | OD value [52]: 79 | OD value [53]: 98 | OD value [54]: 78 | OD value [55]: 82 | OD value [56]: 70 | OD value [57]: 68 | OD value [58]: 79 | OD value [59]: 72 | OD value [60]: 103 | OD value [61]: 104 | OD value [62]: 60 | OD value [63]: 83 | OD value [64]: 79 | OD value [65]: 80 | OD value [66]: 89 | OD value [67]: 78
